Experimental data: patent publication US20130202608A1

Assays:
Assay in all cases: cell-based or functional assay
[1] = biological target: hemagglutinin of A/Common iora/Indonesia/F89/H7N1 (influenza A virus A/Common iora/Indonesia/F89 (H7N1))
[2] = biological target: hemagglutinin of A/Indonesia/CDC669/2006 (H5N1, clade 2.1) (influenza A virus A/Indonesia/CDC669/2006 (H5N1))
[3] = biological target: hemagglutinin of A/Indonesia/TLL013/2006 (H5N1, clade 2.1) (influenza A virus A/Indonesia/TLL013/2006 (H5N1))
[4] = biological target: hemagglutinin of A/Indonesia/TLL014/2006 (H5N1, clade 2.1) (influenza A virus A/Indonesia/TLL014/2006 (H5N1))
[5] = biological target: hemagglutinin of A/chicken/Singapore/Sg02 H3N2 (influenza A virus A/chicken/Singapore/Sg02 (H3N2))

B1: murine monoclonal antibody 4C2 (antibody, V domains shown)
VH: QESGAELVRPGASVKLSCKDSGYTFTTYWMNWVKQRPEQGLEWIGRIDPYDSETHYNQKFKDKAILTVDKSSNTAYMQLSSLTSEDSAVYYCVRGGSTVAYFGVWGQG
VL: MTQSPSSMSVSLGDTVSITCHASQDISGHIGWLQQKPGKSFKGLIYHGTNLEDGVPSRFSGSGSGADFSLTISSLESEDFADYYCVQYVQFPWTFGGGTK
HI titer (titer (mAb at 1 mg/ml)) [1]: < 4
Microneutralization titers against H5N1 strains [1]: < 10
HI titer (titer (mAb at 1 mg/ml)) [2]: 512
Microneutralization titers against H5N1 strains [2]: 320
HI titer (titer (mAb at 1 mg/ml)) [3]: 512
Microneutralization titers against H5N1 strains [3]: 640
HI titer (titer (mAb at 1 mg/ml)) [4]: 512
Microneutralization titers against H5N1 strains [4]: 320
HI titer (titer (mAb at 1 mg/ml)) [5]: < 4
Microneutralization titers against H5N1 strains [5]: < 10
